# Experimental data reported in IntAct's records for PubMed 17380123.
# B1: Zinc finger HIT domain-containing protein 1 (Homo sapiens), O43257 (parent)
# chain: MVEKKTSVRSQDPGQRRVLDRAARQRRINRQLEALENDNFQDDPHAGLPQLGKRLPQFDDDADTGKKKKKTRGDHFKLRFRKNFQALLEEQNLSVAEGPNYLTACAGPPSRPQRPFCAVCGFPSPYTCVSCGARYCTVRCLGTHQETRCLKWTV
# Variants of: B1
# Conditions: with mk14_human MAPK14, Q16539
# mk14_human MAPK14, Q16539, sequence (Q16539 whole entry): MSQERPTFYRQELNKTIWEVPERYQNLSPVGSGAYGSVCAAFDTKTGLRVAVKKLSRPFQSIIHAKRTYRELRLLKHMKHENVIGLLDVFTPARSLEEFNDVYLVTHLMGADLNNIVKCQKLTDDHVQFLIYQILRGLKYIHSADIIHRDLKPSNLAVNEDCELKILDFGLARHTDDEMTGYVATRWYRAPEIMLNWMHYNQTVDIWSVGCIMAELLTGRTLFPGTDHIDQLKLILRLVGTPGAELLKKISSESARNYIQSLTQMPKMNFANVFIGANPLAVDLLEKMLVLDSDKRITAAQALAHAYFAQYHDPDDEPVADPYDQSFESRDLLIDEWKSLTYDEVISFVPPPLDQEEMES
row,effect of a mutation on the interaction,Variant
1,disrupting interaction,T103A
